How the values were obtained:
[1] = tested on: SP-1 zinc finger domain (Homo sapiens); assay: EMSA; conditions: target sequence not given
Zif268 = assay: EMSA; conditions: target sequence not given; literature 2-30 nM; cited from earlier work
VEGF3a/1 six-finger ZFP = biological target: T1, VEGF3a/1 six-finger ZFP (artificial (human SP-1 backbone)); assay: competition; half-life of complex relative to VEGF1, EMSA competition at 37 C; conditions: tags: MBP N-terminal fusion; label: 5' 32P
T1 chain: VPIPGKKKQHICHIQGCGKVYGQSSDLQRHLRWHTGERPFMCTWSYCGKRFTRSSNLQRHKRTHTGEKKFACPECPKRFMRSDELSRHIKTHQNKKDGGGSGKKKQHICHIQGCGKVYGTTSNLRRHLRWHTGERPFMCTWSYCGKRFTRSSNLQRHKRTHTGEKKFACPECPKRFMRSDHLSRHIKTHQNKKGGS
Protocol: For the EMSA studies, 20 μl binding reactions contained 10 fmole (0.5 nM) 5′ ³²P-labeled double-stranded target DNA, 35 mM Tris HCl (pH 7.8), 100 mM KCl, 1 mM MgCl₂, 5 mM dithiothreitol, 10% glycerol, 20 μg/ml poly dI-dC, 200 μg/ml bovine serum albumin, and 25 μM ZnCl₂. Protein was added as one fifth volume from a 3-fold dilution series. Binding was allowed to proceed for 60 min at either room temperature or 37° C. Polyacrylamide gel electrophoresis was carried out at room temperature or 37° C. using precast 10% or 10-20% Tris-HCl gels (BioRad) and standard Tris-Glycine running buffer. The room temperature assays yielded an apparent Kd for this VEGF3a/1 protein of approximately 1.5 nM. Thus, the 18-bp binding ZFP bound with high affinity to its target site. […] When binding and electrophoresis were performed at 37° C., the apparent Kd of VEGF3a/1 was approximately 9 nM when tested against the 18-bp target, compared to a Kd of 40 nM for VEGF1 tested against its target.
The apparent Kd is a useful measure of the affinity of a protein for its DNA target. However, for a DNA binding site either in vitro or in vivo, its occupancy is determined to a large extent by the off-rate of the DNA-binding protein. This parameter can be measured by competition experiments. The conditions for EMSA were as described above; binding and electrophoresis were performed at 37° C. […]

ZFP3A-VP16 / KRAB-ZFP3A = biological target: T2, ZFP3A-VP16 / KRAB-ZFP3A (artificial, UniProt P08047); assay: cell_activity; VP16 fusion on cotransfected reporter; KRAB fusion lowered hKCa4 conductance to 1.0 nS vs 10.0 for empty vector; conditions: tags: VP16 or KRAB fusion
T2 chain: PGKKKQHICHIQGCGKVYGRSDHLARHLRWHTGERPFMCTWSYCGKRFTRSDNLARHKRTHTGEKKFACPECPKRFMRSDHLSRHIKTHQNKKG

SP-1 target site
Kd [1]: 65 nM

Zif268 target site
Kd (Zif268): 60 nM

B1: VEGF 18-bp target JVF9/JVF10 (dsDNA)
DNA 1: AGCGAGCGGGGAGGATCGCGGAGGCTTGGGGCAGCCGGGTAG
DNA 2: CGCTCTACCCGGCTGCCCCAAGCCTCCGCGATCCTCCCCGCT
binding signal (VEGF3a/1 six-finger ZFP): > 10 fold

B2: hKCa4 target site (dsDNA)
DNA 1: GGGGAGGGC
DNA 2: GCCCTCCCC
activity (ZFP3A-VP16 / KRAB-ZFP3A): > 5 fold activation

Reference: US20020045158, “Cells for drug discovery” (published 2002)
